Experimental findings from patent publication US20150147330A1 are described below.

This assay has as its target human glypican-3 (GPC3), cell-associated (human) (UniProt P51654). Description: flow cytometry on cells expressing native GPC3, MFI titration, Scatchard plot (Prism).

In turn, YP7 (antibody) showed a Kd of 0.3 nM.

A word on the Kd: it is the concentration at which binding is half-saturated. Read a high Kd as lower affinity.
